Consider eleven molecules from paper PMC9519457 (Nature Microbiology, 2022).

Broadly, the Kd is the constant that tells how readily two partners part at equilibrium. A higher Kd goes with a looser complex. The term koff denotes the first-order rate constant of dissociation. As usually defined, the kon is the second-order rate constant of association. A higher kon goes with faster complex formation.

Common to all, as to assay: BLI
What all share (settings): both partners purified

Assay [1] deals with recombinant SARS-CoV-2 RBD-His protein (Sino Biological, 40592-V08B) (SARS-CoV-2, UniProt P0DTC2).
For assay [2], the target named is SARS-CoV-2 RBD (residues 319-541), wild type (SARS-CoV-2, wild type, UniProt P0DTC2).
Assay [3] has as its target T1, SARS-CoV-2 Alpha RBD (SARS-CoV-2 Alpha (B.1.1.7), N501Y (stands in the printed letters)).
Assay [4] has as its target S-R SARS-CoV-2 spike (unstabilized native spike with furin site changed to a single R) (SARS-CoV-2, wild type (Wuhan-Hu-1 spike), UniProt P0DTC2, stabilised).
The target in assay [5] is S-R/x3 SARS-CoV-2 spike (x3 disulfide-stabilized RBD 'down' spike) (SARS-CoV-2, wild type (Wuhan-Hu-1 spike), UniProt P0DTC2, stabilised).
For assay [6], the target named is T1, SARS-CoV-2 Alpha RBD. The source holds these as a separate data set.
Assay [7] concerns the target T1, SARS-CoV-2 Alpha RBD. This is another data set of the same source.
For assay [8], the target named is S-R/PP SARS-CoV-2 spike (2P-stabilized spike with furin site changed to a single R) (SARS-CoV-2, wild type (Wuhan-Hu-1 spike), UniProt P0DTC2, stabilised).
The target in assay [9] is S-R/x2 SARS-CoV-2 spike (x2 disulfide-stabilized RBD 'down' spike) (SARS-CoV-2, wild type (Wuhan-Hu-1 spike), UniProt P0DTC2, stabilised).
For assay [10], the target named is SARS-CoV-2 Alpha (B.1.1.7) variant RBD (SARS-CoV-2 Alpha (B.1.1.7), N501Y).

B1: C978 (R1-32-like mAb, ref. 27) (antibody, V domains shown)
VH: QVQLVQSGAEVKKPGSSVKVSCKASGATFSNYIISWVRQAPGQGLEWMGRTIPLLDIANYAQKFQGRVTITADKSTRIVYMHLGSLTSEDTAVYYCATGKGYSSSSAAYYFDHWGQGTLVTVSS
VL: QSVLTQPPSVSGAPGQRVTISCTGTNSNIGAGYDIHWYQQLPGTAPKLLIYGSNNRPSGVPDRFSGSKSGTSASLAITGLQAEDEADYYCQSYDSSLSGSEVFGGGTKLTVL
For B1, the binding result in assay [1] and in assay [2] was “binds” throughout.

B2: FC08 (antibody, V domains shown)
VH: QLLQQSGAEVKKPGSSVKVSCKASGGTFSSYAISWVRQAPGQGLEWMGGIIPIIGIANYAQKFQGRVTITADKSTSTAYMELSSLRSEDTAVYYCARERGYSGYGAAYYFDYWGQGTLVTVSS
VL: SVLTQPPSVSGAPGQRVTISCTGSSSNIGAGYDVHWYQQLPGTAPKLLIYGNSNRPSGVPDRFSGSKSGTSASLAITGLQAEDEADYYCQSYDSSLSGSVFGGGTKLTVL
In the assay with SARS-CoV-2 Alpha RBD [3], B2 yielded a Kd of 0.15 nM, a koff of 0.00025 s⁻¹ and a kon of 1.69e+06 M⁻¹ s⁻¹.

B3: FC08 (R1-32 related VH1-69 antibody, ref. 10) (antibody, V domains shown)
VH: QLLQQSGAEVKKPGSSVKVSCKASGGTFSSYAISWVRQAPGQGLEWMGGIIPIIGIANYAQKFQGRVTITADKSTSTAYMELSSLRSEDTAVYYCARERGYSGYGAAYYFDYWGQGTLVTVSS
VL: SVLTQPPSVSGAPGQRVTISCTGSSSNIGAGYDVHWYQQLPGTAPKLLIYGNSNRPSGVPDRFSGSKSGTSASLAITGLQAEDEADYYCQSYDSSLSGSVFGGGTKLTVL
Regarding B3, the binding result in assay [4], in [5] and in assay [2] was “binds” each time.

B4: R1-32 (antibody, V domains shown)
VH: EVQLVESGAEVKKPGSSVKVSCKASGGTFSSYAISWVRQAPGQGLEWMGGIIPILGIANYAQKFQGRVTITADKSTSTAYMELSSLRSEDTAVYYCARENGYSGYGAAANFDLWGRGTLVTVSS
VL: QSVLTQPPSVSGAPGQRVTISCTGSSSNIGAGYDVHWYQQLPGTAPKLLIYGNSNRPSGVPDRFSGSKSGTSASLAITGLQAEDEADYYCQSYDSSLSGSVFGGGTKLTVL
notes: human IgG1
In the assay with SARS-CoV-2 Alpha RBD [6], B4 had a koff of 0.000354 s⁻¹ and a kon of 499000 M⁻¹ s⁻¹. Moreover, in the assay with SARS-CoV-2 Alpha RBD [7], the Kd was determined as 4.74 nM, the koff was determined as 0.00195 s⁻¹ and the kon came to 411000 M⁻¹ s⁻¹.

B5: R1-32 (human IgG1 monoclonal antibody) (antibody, V domains shown)
VH: EVQLVESGAEVKKPGSSVKVSCKASGGTFSSYAISWVRQAPGQGLEWMGGIIPILGIANYAQKFQGRVTITADKSTSTAYMELSSLRSEDTAVYYCARENGYSGYGAAANFDLWGRGTLVTVSS
VL: QSVLTQPPSVSGAPGQRVTISCTGSSSNIGAGYDVHWYQQLPGTAPKLLIYGNSNRPSGVPDRFSGSKSGTSASLAITGLQAEDEADYYCQSYDSSLSGSVFGGGTKLTVL
For B5, the binding result in assay [8], in assay [4], in [9] and in assay [5] was “binds” in each case. The molecule also showed a Kd in [10] of 0.71 nM.

B6: C091 (R1-32-like mAb, ref. 28) (antibody, V domains shown)
VH: QVQLVQSGAEVKKPGSSVKVSCKASGGTFSSYTISWVRQAPGQGLEWMGRIIPILGIANYAQKFQGRVTITADKSTSTAYMELSSLRSEDTAVYYCARDSGYSGYGSTYYMDVWGKGTTVTVSS
VL: QSVLTQPPSVSGAPGQRVTISCTGSSSNIGAGYDVHWYQQLPGTAPKLLIYGNSNRPSGVPDRFSGSKSGTSASLAITGLQAEDEADYYCQSYDSSLSGSVFGTVTKVTVL
For the molecule B6, the binding result in [1] and in assay [2] was “binds” each time.

B7: C832 (R1-32-like mAb, ref. 29) (antibody, V domains shown)
VH: QVQLVQSGAEVKKPGSSVKVSCKASGGTFSSYSISWVRQAPGQGLEWMGRIIPILGIASYAQKFQGRVTITADKSTSTVYMELTGLRSDDTAVYYCARDRGYSDYGSHYYMDVWGKGTTVTVSS
VL: QSVLTQPPSVSGAPGQRVTISCTGSSSNIGAGYDVHWYQQLPGTAPKLLIYINSNRPSGVPDRFSGSKSGTSASLAITGLQAEDEADYYCQSYDSSLSDSVFGGGTKLTVL
With B7, the binding result in assay [1] and in assay [2] was “binds” throughout.

B8: C092 (R1-32-like mAb, ref. 28) (antibody, V domains shown)
VH: QVQLVQSGAEVKKPGSSVKVSCKASGGSFTNHFISWVRQAPGQGLEWMGRIIPILGTANYAQNFQGRVMMTADKSTSTAYMELSSLRSEDTAVYYCARDSGYSGYGSTYYMDVWGKGTTVTVSS
VL: QSVLTQPPSVSGAPGQRVTISCTGSNSNIGAGYDVHWYQQLPGAAPKLLIYGNNNRPSGVPDRFSGSKSDTSASLAITGLQVEDEADYYCQSYDSSLSDSVFGSGTKVTVL
B8: the binding result in assay [1] and in assay [2] was “binds” throughout.

B9: C807 (R1-32-like mAb, ref. 29) (antibody, V domains shown)
VH: QVQLVQSGAEAKKPGSSVKVSCKASGGTFKSYIINWVRQAPGQGLEWMGEIIPIFGTANYAQKFQGRVTSTADESTSTAYMELSSLKSEDTAVYYCARGRGYSGYGASYYFDYWGQGTLVTVSS
VL: QSVLTQPPSVSGAPGQRVTISCTGSNSNIGAGYDVHWYQQLPGTAPKLLIYANSNRPSGVPDRFSGSKSGTSASLAITGLQAEDEADYYCQSYDSGLSGSVFGGGTKLTVL
Regarding B9, the binding result in assay [1] and in [2] was “binds” in each case.

B10: C963 (R1-32-like mAb, ref. 27) (antibody, V domains shown)
VH: QVQLVQSGAEVKKPGSSVRVSCKASGGTFSSFTITWVRQAPGQGLEWMGRIIPNLNIPNYAQRFQGRITITAEKSTSTAYLELSSLRSEDTAVYYCARGVGYSGSGSNWYFDLWGRGTLVTVSS
VL: QSVLTQPPSVSGAPGQRVTISCTGSSSNIGAGYDVHWYQQLPGTAPKLLISGHINRPSGVPDRFSGSTSGTSASLAITGLQAEDEADYYCQSYDSSLSDSVFGGGTKLTV
For the molecule B10, the binding result in [1] and in assay [2] was “binds” in each case.

B11: C941 (R1-32-like mAb, ref. 27) (antibody, V domains shown)
VH: QVQLVQSGAEVKKPGSSVKVSCKASGGTSRSYPISWVRQAPGQGLEWMGRIIPIVGTANYAQRFQGRVTITADESTGTAYMELSSLRSEDTAVYYCARNRGYSDYGSVYYFDYWGQGTLVTVSS
VL: QSVLTQPPSVSGAPGQRVTISCTGSSSNIGAGYDVHWYQQLPGAAPKLLIYRNINRPSGVPDRFSGSKSGTSASLAITGLQADDEADYYCQSYDSSLSGSVFGGGTKLTV
Consider B11, for which the binding result in assay [1] and in assay [2] was “binds” in each case.
